These results are taken from the DeepSol protein solubility set.

This series is described as follows: soluble on expression in E. coli; label from the status in PepcDB or PDB records.
With “MSLKGGEYLETAAKVDVVVVDKTGTLTTGRPELTDVEVIEPAYSQGEVLELAARAETASEHPLADAIIRGAQDRGLSTTLVEAAENITGRGIIANVDGQAVAVGSAELLDHEPDSTRILELNAEGKTAMFVGVNGHAIGIVAVADAVRSDSASAIESLHKAGIQVVMATGDAHRVAQNVASKLGVDEVYSELLPEQKLELVRDLQAAGKTVAMVGDGVNDTPALAAADIGVAMGVAGSPAAIETADIALMADRLPRLAHAVTLAKRTVRTMREGHHHHHH”, the “soluble on expression in E. coli” value is “soluble”. With “MSLIEQLIQQAQPYWQQYIEHEFVQQLAKGTLPKACFQHYLKQDYLYLFHYSRAFALGVFKAKNFAEMETPRKTLEILCQEIQLHLNYCREWGISEQEIFTTQESAACIAYTRYLLDCGMTGSLAELYAAVTPCALGYAQVARYITQHYPRLPNNPYQTWIDTYASEEFQQAAQETVDFLTALCKPLNPSQLAEIQQIFTTATRMEIAFWQMGLDLAEGGSHHHHHH”, the “soluble on expression in E. coli” value was “soluble”. Regarding “MSAPTMRSTSILTEHLGYPPISLVDDIINAVNEIMYKCTAAMEKYLLSKSKIGEEDYGEEIKSGVAKLESLLENSVDKNFDKLELYVLRNVLRIPEEYLDANVFRLENQKDLVIVDENELKKSEEKLREKVNDVELAFKKNEMLLKRVTKVKRLLFTIRGFKQKLNELLKCKDDVQLQKILESLKPIDDTMTLLTDSLRKLYVDSESTSSTEEVEALLQRLKTNGKQNNKDFRTRYIDIRTNNVLRKLGLLGDKEDEKQSAKPDARTQAGDIVSIDIEEPQLDLLDDVL”, the “soluble on expression in E. coli” value is recorded as “soluble”. With “MGSDKIHHHHHHMTTATHPNDALFAGEKSFPVLAACEHFAGSEKLIGKAMDLQVEYGPVFDVTCDCEDGAAAGQEREHAEMVARMIASDRNVHGRAGARIHDPSHPAWRQDVDIIVNGAGGRLAYITVPKATNSGQVAEVIRYIGDVAKRAGLDKPVPVHVLIETHGALRDVFQIAELPNIEVLDFGLMDFVSGHHGAIPAAAMRSPGQFEHALLVRAKADMVAAALANGIVPAHNVCLNLKDAEVIASDACRARNEFGFLRMWSIYPAQIQPIVNAMRPDFTEVEDAAGILVAAQDADWGPIQYKGELHDRATYRYFWEVLQKAKVTGMAVPAEAERRFFVN”, the “soluble on expression in E. coli” value is “not soluble”. For “MSLADRLTIGEFSRITHLSIRMLRRYHEQDLLVPAEVDPDTGYRYYSPAQIRPALTVRRFRDLDLPLADLRRFLAAESADGPDDGTAQQVVAAHLRRLEDRLGRTQRAVEVLRELLDPEAERAVTLEELPARRVLAVTLDVPEGAGLDWYDEAMCDVDSAAGERSVLPPGGRYEHTLFTEGHGRATVYVPFEAPLPPEMPGRVRELHLPRRTAAVATHQGRHDDLDLTYGAVGSFAARNDLRSQDLVEEVYLVGPRDTDRPELWRTLVAWLIAPENEGHHHHHH”, the “soluble on expression in E. coli” value is “soluble”. Regarding “MSLTDLFAREPYAPLAERLRPHTLDDVVGQEHLIGEGKPLRVAVEGGKPHSMLLWGPPGVGKTTLARILAQSFNAQFLPVSAVFSGVKDIREAIDKAEIALQQGRATILFVDEVHRFNKAQQDAFLPHVESGLLTFIGATTENPSFEVNPALLSRAQVYVLQPLSSDDLKKLIAKVLALPEYQEFTIETDAQKLLVNTVDGDARRLLNLLEQLLRAADTRRLKNLTAEFLADSLGAQIRRFDKGGESFYNQISALHKSVRGSHPNAALYWFCRMLDGGTDPRYLARRIVRIAWEDIGLADPRALQIANDAAATFERLGSPEGELALAQAVLYLAAAAKSNAGYKAYNQMRHFVKENASDEVPVHLRNAPTKLMKELGYGREYRYAHDEPNAYAAGESYMPDGLDEPDFYQPVPRGLEIKIGEKLAWLKSLDEEVLKAEGHHHHHH”, the “soluble on expression in E. coli” value is given as “soluble”. As for “MAHHHHHHMPKIRPGMKRPPPGFEKINDKLDEYDAEMRLALSEDPSQAELPVPSKRKDKQNKVEATKDKHAQSVQRGDGGVAGHSDGELDKPEPPLWRVARINRERTRYVFNACFRERIIAEEVLDYCCEMNFIDAGLVRRWSLAGYERLCCNTCCLPGAASEAARMVNKFANRDKKDRRTNGNDDTGGTCICRVPDEKRLAKAFTRCMVCGCSGCGSGGKRKHDTEEKDSVSDMKKVRTDDYEVKSGK”, the “soluble on expression in E. coli” value is “not soluble”. “MGSDKIHHHHHHMTIQKHFPTVEMADIHFELIGGLSSQSWRIRGPGIEWLARRQSPVERKMGVDRQREFALLRQMSAVGLAPRPLLWRDGWLIVEWVPGRIATSDEFLMMLANGEVARVLSQLHRQPRSGHPLNFKILFAQHWQLMDPCRRSPALLRAHHHFQRAALPTPLALVPLHLDVHAENLLITPQGTMLIDWEYASDGDIAFELAFIVRASQMDSVAQTYFLQSYQRHRRGFSVSRLQQQMMQWFPWVDYLVLMWFEVRWQQTKNLEFLAEIPALRHRLQLG”: the “soluble on expression in E. coli” value was “not soluble”.

With “MGSDKIHHHHHHMTMTNTPRQDSPFEKPVRVRAGFSLTFDVPYATPMIFVVQPQDRLSPTGTRQRIIDQRPLAAAEGIHTYTDTHGNLIWRTVAQPGEFTIGHDLIAEIERRPDPQLPGLRKMMVEELPDDVLQYLLPSRYVDSDLVSAEAWERFGNVQGGWAQVQAVCDYLFDTCVYGYGSNSTTTASQALGSGRAVCRDFAHMGVAFCRALNIPARYVCGYMPDIDYPPDPVPMDFHAWFEAFIDGEWRTFDARHNIPRTGRVLIAQGRDASDVAFTTSFGSAKLVNMKVWADETDFDNTLDIAPNPRIF”, the “soluble on expression in E. coli” value is “not soluble”.

Regarding “SEAVLTEELDEEEQLLRRHRKEKKELQAKIQGMKNAVPKNDKKRRKQLTEDVAKLEKEMEQKHREELEQLKLTTKENKIDSVAVNISNLVLENQPPRISKAQKRREKKAALEKEREERIAEAEIENLTGARHMESEKLAQILAARQLEIKQIPSDGHCMYKAIEDQLKEKDCALTVVALRSQTAEYMQSHVEDFLPFLTNPNTGDMYTPEEFQKYCEDIVNTAAWGGQLELRALSHILQTPIEIIQADSPPIIVGEEYSKKPLILVYMRHAYGLGEHYNSVTRLVNIVTENCS”, the “soluble on expression in E. coli” value is listed as “soluble”. As for “SGCFGCFSPEVDDDLKPSKPNYHSSDESSGADARRKVAPLATDGGNGYAHSFTFKDLSVATGYFNEANFIGEGGFGKVYKGKINGQMVAVKQLTRDGVQGRNEFLVEVLMLTVLNHPHLVSLVGFCAQGDERLLVYEYMPFGSLESHLFDVPLGKQPLDWNTRMRIAVGVAEGLSYLHNVADPPIIYRDMKAANILLDEDYRPKLSDFGLAKVGPVGDRTHVSTRVMGTYGYCAPDYVVSGKLTMKSDIYSFGVLLLELITGRRIYDASRPKPEQSLLTWSRPFLHDKRKFYRLADPALHGCYPTSALNQLVVISIMCLQDQPHVRPIISDVVIGLNHVASQPYVPERSSVSLSSPARCGSPQYAGTPSRRRGGRRVAQYA”, the “soluble on expression in E. coli” value was “soluble”. In the case of “MAMIHEMILDGKVVRYRVVEKPVKYVTLRVLEDGTILVVTPLEQIVREVLIKKKDWILSKISIVEEAKELSRKGFPLFGKFYSLEMGEKFEINREELRITFPGIEFLRNWIKREIKRKAREIAKDFGISPKRIYVKAMRTKWGSATWRKSITLNFSSAALPEELFHYLVIHELAHLIELNHSKRFWSLVASYHPDYKKKRRELKKWWFIVHSNETWRAILQWPEGLEHHHHHH”, the “soluble on expression in E. coli” value is listed as “soluble”.

Consider “MQLNDSTLFRQQAFIDGDWRDARGGDVIPVSNPANGKPLGNVPKMGAEETRDAINAANRALPAWRALTAKERANILRRWFNLMMEHQDDLARLMTLEQGKPLAEAKGEISYAASFIEWFAEEGKRIYGDTIPGHQADKRLLVIKQPIGVTAAITPWNFPSAMITRKAGPALAAGCTMVLKPASQTPFSALALAELAQRAGIPAGVFNVVTGSAGDIGGELTSNPLVRKLSFTGSTEIGRQLMEQCAKDIKKVSLELGGNAPFIVFDDADLDKAVEGALASKFRNAGQTCVCANRLYVQDGVYDRFAEKLNQAVNKLAVGDGLQADVAIGPLIDEKAVAKVQEHIADALEKGARVITGGEAHKLGGNFFQPTILADVPDNAKVAKEETFGPLAPLFRFSDEADVIRQANDTEFGLAAYFYARDLSRVFRVGEALEYGIVGINTGIISNEVAPFGGIKASGLGREGSKYGIEDYLEIKYMCIGL”, for which the “soluble on expression in E. coli” value was “not soluble”. With “MGSDKIHHHHHHNEDDIFDESSAQRAIASVNECQEILKGAANGWLLEYYTGEDGEYGGFNVLARFDGNNVIMAADFATDNYEIGEESTSLYKVESYQGTELSFDSYNELIHEFCEPSGYNSPGYAGDYEFVFRSVSKEKIVLTGKKHGVTLIMTPLPAETNWQEKLTNIANVVSQASYVTYKLIVNGQEITKMGQEEHAFSVTKVDETGETTVSLYPFIYTEEGIKMYEPLVVNGVEINNFKWDNENLTYICTDTGVDAKIEFYCPEGYLNYLGNYILQLANGQRIQLELKQKMIGKSFAMNFALSGTPIEFVYNYNMTTDCIDVPSQTVGVYQGYNVLLYPGIPGGNFYADDSAVFQGRIANTDPLTIKFTYVNNPICTLMLLVYQKTDGWYGFSTMFQDVTLIKVD”, the “soluble on expression in E. coli” value was “not soluble”. Regarding “MLLVSDIQTIQPSLNSVNEGGQKIKNEAEPEFASRLETELKELNTQWDHMCQQLEHHHHHH”, the “soluble on expression in E. coli” value was “not soluble”. With “MAPRQLAAADLAVGQVVAQREIRLDAQAFAQFAALTGDAHPIHYDAGYVQRQGLRAPIAHGLLLVAISALGATPLSAQLHDAMVAMVGVEAVFMRPVYVDETVQCVYRVAQIEHVAKGRSKTTIAVSIHTTDAPPDAARQAHCVVHLTFLLKTHLQGLEHHHHHH”, the “soluble on expression in E. coli” value is on record as “not soluble”. Regarding “MRLNHNSYEIFDFMRSRSAIGVLSKIIITIPPINLRMIIGVMGPEGSYSERAAKLWARKNGLRGAEFHYFADIEDAFLAAVGGKTDISVVPVENSIEGSVGVTLDLLLENEAVIIGEIVVKIEHCLLSKGEPEKIRVILSHPQGLAQCRHFLKTHFPEAELRSTGSTSHAARLAGEFEEMAAIASPEAAERYGLKILLSNVQDRKENHTRFIVVRGGEKVLSGKIKGKADSGEKLNTVFGRNAEHKLCSETETGTENSSSYAFKTSLIVYLEKDRPGALYEPLGFFAKRGINLTKIESRPSKKELGDYYFYIDLEGNISDVLIKDALEDIKSKASKKSRSSTLKVLGSYPAFKK”, the “soluble on expression in E. coli” value is given as “not soluble”. In the case of “MMHEKNIALLCDEADRLLQLNINLLRQMVDEPDVLSDSKNENGLLFDKRKALKRIEELEGEQIKTARREMVLAVVGTMKAGKSTTINAIVGQEILPNRNRPMTSVPTLIRHVPGKTEPVLHLEHIQPVRNLLITLQEKLATPAGQQVAQSLQQTGDTRELLDILADDVWLKNEYHGEDEIFTGLASLNDLVRLAAAMGTEFPFDEYAEVQKLPVIDVAFSHLVGMDACQGTLTLLDTPGPNEAGQPQMEMMMRDQLQKASAVLAVMDYTQMNSKADEEVRKELNAIADVSAGRLFVLVNKFDEKDRNGDGADAVRQKVPAMLNSDVLPASRVYPGSSRQAYLANRALHELRKNGALPVDEAWVDDFIREAFGPMVEEDDWKDSTKVNKKAEKLWNISLIDQLITEVIQSSHSRAAALAVDSAAAKLMQNAENVSEYLSLRHQGLQQSIQSLQAHITSLLADIQEIEECQNQVTGDVRMAMEDINTKTGELLTKVCASLEEELNDYFRSGKRKEQQMLEEENSAQPRERNAFAFFHDIFGTGNQHDRMRDFDPDSPEIKFSDRRAALELMTQIESTVTSLHREAEAQFRPELEKIVSGIETGFRGTALYATENIAGRINARLEDEGFTVKISFPAVSQLQTRLAVKINLSALMEERTETVTRRRRQSGVWGTVCRWFGTSDLGWENYDEDVSRSVININKAREEVMSLTRAYFGELQASIEQDINQPVRQEIDAFFCAFREKVEQLRNTLIQSSEDHKRDQQAQERLTGRLQALNERVPELITDSKALREELETML”, the “soluble on expression in E. coli” value is reported as “not soluble”.

Consider “MGSDKIHHHHHHMAERLGISIRSIYRDIDSLRAQGVRIDASAGLGFQLKEDILLPPVTFNENEAEALFLALEWLKDVPDQAMKSAAVSIYSKLYAVLPEHRKYLIDDMTLGVTHYWHPVDEALVEQVRLAIRKQVKIKVDYCDEHKRISQRSLWPFALGYLHDKVVLAAWCELRQAFRHFRIDRIHDLQMSEEIYPEFKKHLFQRWWKQEMQRTTDKN”, for which the “soluble on expression in E. coli” value was “not soluble”.
